Results reported in patent publication US20030008329A1 (Takeda / Millennium, published 2003).
Blank lines part the entries; values can stand above or below the molecule they belong to. Where no end group is shown, it is not given here.

How the values were obtained:
[1] = biological target: mouse-derived galanin receptor protein (mouse pancreatic β-cell line MIN6-derived, encoded by pMGR20) (mouse) (UniProt P56479); experiment: competition with [125I] porcine galanin on MIN6 cell membrane fractions, 25 C 75 min, filtration
[2] = biological target: mouse-derived galanin receptor protein (mouse pancreatic β-cell line MIN6-derived, encoded by pMGR20) (mouse) (UniProt P56479); experiment: competition with porcine [125I] galanin on membranes of CHO cells expressing the mouse galanin receptor
[3] = biological target: mouse-derived galanin receptor protein (mouse pancreatic β-cell line MIN6-derived, encoded by pMGR20) (mouse) (UniProt P56479); experiment: competition with 100 pM porcine [125I] galanin on membranes of CHO cells expressing the mouse galanin receptor, 25 C 75 min
[4] = biological target: T1, mouse-derived galanin receptor protein (mouse pancreatic β-cell line MIN6-derived, encoded by pMGR20) (mouse, UniProt P56479 1-348); experiment: saturation binding and Scatchard plot analysis on membrane fractions of CHO cells transformed with mouse galanin receptor cDNA, 25 C 75 min, filtration
T1 construct: also called mouse galanin receptor; MIN6-derived galanin receptor protein
T1 sequence: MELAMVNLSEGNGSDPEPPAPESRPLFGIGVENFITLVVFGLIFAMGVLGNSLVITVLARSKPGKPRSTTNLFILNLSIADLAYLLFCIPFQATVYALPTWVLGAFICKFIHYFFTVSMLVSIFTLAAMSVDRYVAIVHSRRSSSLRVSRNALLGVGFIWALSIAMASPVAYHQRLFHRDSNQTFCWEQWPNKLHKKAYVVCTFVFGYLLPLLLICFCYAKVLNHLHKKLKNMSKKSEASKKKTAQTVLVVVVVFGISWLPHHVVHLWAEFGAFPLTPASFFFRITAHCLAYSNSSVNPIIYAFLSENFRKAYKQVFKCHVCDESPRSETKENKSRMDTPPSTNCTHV
Source text: (§1) The results shown are from one representative experiment performed in triplicate assays.
as §1

[5] = biological target: T1, mouse-derived galanin receptor protein …; experiment: competition with porcine [125I] galanin on membranes of CHO cells expressing the mouse galanin receptor
Experimental: (§2) Membrane fractions (1 μg of protein) were incubated with the ligands for 75 min at 25° C. […] Each symbol represents the mean value±S.E.M. of the triplicate assays.

[6] = biological target: T1, mouse-derived galanin receptor protein …; experiment: competition with [125I] porcine galanin on MIN6 cell membrane fractions, 25 C 75 min, filtration
Experimental: The MIN6 cell membrane fractions prepared by the method of the above-mentioned (1) were diluted with a buffer for the receptor binding experiment (containing 20 mM of Tris, 1 mM of EDTA, 0.03% of NaN , 0.1% of BSA, 0.05% of CHAPS, 0.5 mM of PMSF, 10 μg/ml of pepstatin, 20 μg/ml of leupeptin and 4 μg/ml of E-64; pH: 7.4) to make the membrane protein concentration 50 μg/ml.
The mixture was allowed to stand in a water bath of 25° C. for 75 minutes to promote the receptor binding reaction. Thereafter, 1.5 ml of an ice-cooled buffer for the binding experiment was added to the reaction solution for quenching the binding reaction and filtered with a glass fiber filter (GF/F, manufactured by Whatman) immediately whereupon the membrane fractions were collected on the filter paper. Then the filter paper was washed with 1.5 ml of the same buffer and the amount of the radioisotope in the filter paper was determined by a gamma-ray detector.

[7] = biological target: T1, mouse-derived galanin receptor protein …; experiment: competition with 100 pM porcine [125I] galanin on membranes of CHO cells expressing the mouse galanin receptor, 25 C 75 min
Experimental: as §2

IC50 [1]: 0.69 nM
Molecule: galanin antagonist (galantide) (peptide)

Ki [2]: 0.23 nM
IC50 [3]: 0.83 nM
Molecule: M15 (galanin receptor antagonist) (peptide)

Kd [4]: 0.045 nM
B1: porcine [125I] galanin (peptide, UniProt P07480 33-61, looked up)
peptide: GWTLNSAGYLLGPHAIDNHRSFHDKYGLA
modifications: ends and bridges not checked; also: [125I] radioisotope label (residue not given here)
notes: mature; also called labeled galanin

Ki [5]: 0.072 nM
IC50 [6]: 0.12 nM
B2: porcine galanin (unlabeled) (peptide, UniProt P07480 33-61, looked up)
peptide: GWTLNSAGYLLGPHAIDNHRSFHDKYGLA
modifications: ends and bridges not checked
notes: mature; The assay used the 29-residue peptide; also called standard porcine galanin; galanin (porcine)

Ki [5]: 1 nM
IC50 [6]: 3.3 nM
IC50 [7]: 3.6 nM
B3: galanin (1-16) partial peptide (peptide)
peptide: GWTLNSAGYLLGPHAI
notes: The range 1-16 counts on the mature peptide, not on the precursor

Ki [5]: 0.12 nM
IC50 [7]: 0.43 nM
B4: human galanin (unlabeled) (peptide, UniProt P22466 33-62, looked up)
peptide: GWTLNSAGYLLGPHAVGNHRSFSDKNGLTS
notes: mature; The assay used the galanin peptide
